Patent US20240131074A1 (TENEOBIO, published 2024)

B1: Anti-PSMA heavy chain-only antibody (UniAb) Clone ID 325795 (antibody, V domains shown)
VH: EVQLLESGGGLVQPGGSLRLSCAASGFTFKFYAMSWVRQAPGKGPEWVSVISGSGGSTYYADSVKGRFTISRDNSKNTLHLQMNSLRAEDTAVYFCAKEIAEASRGFDYRGQGTLVTVSS
notes: Heavy chain-only antibody with no light chain
B2: Anti-PSMA heavy chain-only antibody (UniAb) Clone ID 325972 (antibody, V domains shown)
VH: EVQLLESGGGVVQPGRSLRLSCAASGFSFSGYGMHWVRQAPGKEREWVAVISYDGSNKYYADSVKGRFTISRDNSKNTLYLQMNSLRAEDTAVYYCAKDANWGQHPDHTSFDYRGQGTLVTVSS
notes: as for B1

Assays:
[1] = molecular target: human PSMA protein (ELISA) (human, UniProt Q04609 44-750, limits assumed); assay: ELISA on human PSMA protein
Sequence of human PSMA protein (ELISA) (Q04609 44-750 limits assumed): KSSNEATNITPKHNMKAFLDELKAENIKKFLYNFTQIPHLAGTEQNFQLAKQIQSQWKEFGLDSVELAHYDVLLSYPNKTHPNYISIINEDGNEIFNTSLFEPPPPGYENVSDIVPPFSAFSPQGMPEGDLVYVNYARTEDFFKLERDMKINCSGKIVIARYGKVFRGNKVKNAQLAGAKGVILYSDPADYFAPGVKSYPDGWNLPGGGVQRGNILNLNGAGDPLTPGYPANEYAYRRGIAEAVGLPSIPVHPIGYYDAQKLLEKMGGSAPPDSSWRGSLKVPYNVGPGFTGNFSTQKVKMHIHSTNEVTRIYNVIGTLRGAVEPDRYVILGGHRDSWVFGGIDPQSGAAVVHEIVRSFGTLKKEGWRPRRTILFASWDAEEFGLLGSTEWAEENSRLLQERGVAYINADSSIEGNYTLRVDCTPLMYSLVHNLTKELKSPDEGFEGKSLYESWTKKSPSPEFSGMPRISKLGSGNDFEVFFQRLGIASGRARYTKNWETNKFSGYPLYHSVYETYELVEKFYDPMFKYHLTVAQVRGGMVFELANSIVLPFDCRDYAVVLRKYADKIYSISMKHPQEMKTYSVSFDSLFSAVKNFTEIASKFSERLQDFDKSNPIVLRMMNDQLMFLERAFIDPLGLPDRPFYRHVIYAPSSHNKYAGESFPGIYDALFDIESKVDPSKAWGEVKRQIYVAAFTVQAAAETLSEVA
Description: The two indicated antibodies were tested for binding in a standard ELISA assay to human PSMA. The human PSMA protein was used at a concentration of 2 μg/mL to capture UniAbs at 50 ng/mL. Antibody binding was detected with a goat anti-human IgG HRP conjugated antibody (ThermoFisher 31413). All antibodies were diluted in 1× PBS with 0.05% Tween-20 and 1% dry milk powder.

[2] = molecular target: T1, human PSMA expressed on cells (LNCaP, 22Rv1, PC3 cells stably transfected to express human PSMA) (human, UniProt Q04609 1-750); assay: cell-binding assay on PSMA+ cells
T1 construct: whole, on cells; Type II transmembrane protein; The background section calls it a non-covalent homodimer; also called Prostate Specific Membrane Antigen; Glutamate Carboxypeptidase II
T1 sequence (Q04609 whole entry): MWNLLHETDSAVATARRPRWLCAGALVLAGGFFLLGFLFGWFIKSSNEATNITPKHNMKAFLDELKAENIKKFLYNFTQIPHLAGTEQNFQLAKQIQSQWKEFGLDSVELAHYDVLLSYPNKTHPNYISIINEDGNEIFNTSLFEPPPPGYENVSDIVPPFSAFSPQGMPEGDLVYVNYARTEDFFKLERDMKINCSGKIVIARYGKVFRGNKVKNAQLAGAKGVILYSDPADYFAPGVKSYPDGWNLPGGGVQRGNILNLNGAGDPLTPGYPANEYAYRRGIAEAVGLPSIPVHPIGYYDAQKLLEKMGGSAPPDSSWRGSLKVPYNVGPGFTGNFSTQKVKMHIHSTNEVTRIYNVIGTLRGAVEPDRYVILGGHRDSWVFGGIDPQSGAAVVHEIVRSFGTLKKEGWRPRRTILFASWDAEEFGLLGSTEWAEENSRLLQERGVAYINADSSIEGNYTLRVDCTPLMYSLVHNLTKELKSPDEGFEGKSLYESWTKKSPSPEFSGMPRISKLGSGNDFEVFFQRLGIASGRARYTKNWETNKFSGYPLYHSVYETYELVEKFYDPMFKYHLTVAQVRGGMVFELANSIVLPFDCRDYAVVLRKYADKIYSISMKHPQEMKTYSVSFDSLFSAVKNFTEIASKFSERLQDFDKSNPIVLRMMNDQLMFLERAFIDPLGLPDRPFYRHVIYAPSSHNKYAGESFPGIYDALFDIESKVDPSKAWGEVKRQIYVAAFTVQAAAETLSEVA

Row | Binder | binding result [1] | binding result [2]
1 | B1 | binds | binds
2 | B2 | binds | binds
